Tests used:
[1] = molecular target: NaV1.5 α subunit, DIII LFS voltage clamp fluorometry construct (M1296C), labelled with MTS-TAMRA (human) (UniProt Q14524)
[2] = molecular target: NaV1.5 α subunit, DIV voltage clamp fluorometry construct (S1618C), labelled with MTS-TAMRA (human) (UniProt Q14524)
[3] = molecular target: NaV1.5 α subunit, DIII LFS voltage clamp fluorometry construct (M1296C), labelled with MTS-TAMRA (human) (UniProt Q14524); remark: listed apart in the source
[4] = molecular target: A1330W mutant NaV1.5 channel in the DIII-M1296C VCF construct, labelled with MTS-TAMRA (human) (UniProt Q14524)

β3-NTM β1-C chimera was tested, and the depolarizing shift of the DIII F-V curve (voltage clamp fluorometry in oocytes), α with chimera against α alone [1] was 22.9 mV.

Molecule “WT NaV β1 subunit (from UniProt Q07699-1 19-218) (natural protein)” has a depolarizing shift of the DIV F-V curve (voltage clamp fluorometry in oocytes), α with β1 against α alone [2] of 31.3 mV.

B1: WT NaV β3 subunit (natural protein)
chain: FPVCVEVPSETEAVQGNPMKLRCISCMKREEVEATTVVEWFYRPEGGKDFLIYEYRNGHQEVESPFQGRLQWNGSKDLQDVSITVLNVTLNDSGLYTCNVSREFEFEAHRPFVKTTRLIPLRVTEEAGEDFTSVVSEIMMYILLVFLTLWLLIEMIYCYRKVSKAEEAAQENASDYLAIPSENKENSAVPVEE
For B1, the depolarizing shift of the DIII F-V curve (voltage clamp fluorometry in oocytes), α with β3 against α alone [3] was 20.7 mV and the depolarizing shift of the DIII F-V curve (voltage clamp fluorometry in oocytes), A1330W with β3 against A1330W alone [4] was 22.6 mV.

Reference: PMC5560778
